We go through one substance from PMC6458971.

This experiment deals with AviTagged clade B YU-2 gp140 trimers (HIV-1 clade B, strain YU-2 | not stated). Briefly: SEC.

Broadly, the stoichiometry N is the number of molecules, sites or subunits per partner or assembly. For the substance “AviTagged clade B YU-2 gp140 trimers (domain or fragment)”, the stoichiometry N was 3.
